Substitutions are numbered along the chain they refer to.

The target of assay [1] is CD47 ECD-C15G mutant, His-tagged (human, UniProt Q08722 19-141, N-terminus Q1 cyclized as pyroglutamate (C47B161 complex); glycans at 5, 16, 32, 55, 93 except in the endoH-deglycosylated C47B161 complex). In words: Fab:CD47 complex isolated by chromatography and crystallized.
Experimental: The His-tagged CD47 was deglycosylated and further purified by affinity chromatography. The complex CD47:Fab was prepared by mixing Fabs with excess CD47 at a molar ratio ranging from 1.2:1.0 to 1.5:1.0. The complex was incubated overnight at 4° C., separated from the uncomplexed species using size exclusion chromatography, and concentrated to 7.5-20 mg/mL in 20 mM HEPES pH 7.4, 100 mM NaCl, 5% glycerol. The concentrated complex was then used to set up crystallization trials using the sitting drop method at 20° C. and crystals were optimized by varying the protein to reservoir ratio.
For assay [2], the target named is T1, human CD47 on Jurkat cells (human, UniProt Q08722 19-323).
T1 construct: Endogenous CD47 of the cell lines; also called CD47-expressing Jurkat cells; CD47 on HL60 cells
In words: MSD on Jurkat cells; blocks SIRP alpha-Fc binding.

Assay [3] has as its target T2, recombinant human CD47 extracellular domain (ECD), His-tagged, monomer (human, UniProt Q08722 19-141).
T2 construct: C-terminal 6xHis tag; monomeric fraction from Superdex 200; also called human CD47 ECD; CD47-ECD monomer
In words: ProteOn SPR; mAb captured, ECD monomer as analyte.

Assay [4] deals with T3, Cyno CD47 ECD protein, His-tagged, monomer (cyno).
T3 construct: extracellular domain; also called cynomolgus CD47
In words: ProteOn SPR; mAb captured, ECD monomer as analyte.

The target of assay [5] is T3, Cyno CD47 ECD protein, His-tagged, …. Kind of assay: ProteOn SPR; cyno KD / human KD.
Assay [6] deals with T4, recombinant human CD47 extracellular domain (ECD), His-tagged, dimer (human, UniProt Q08722 19-141).
T4 construct: Dimeric fraction of the same His-tagged ECD; also called His-tagged CD47-ECD dimer protein
In words: MSD; CD47-ECD dimer binding to captured SIRP alpha-Fc, mAb 10 µg/ml.

B1: C47B167 Fab (Fab, V domains shown)
VH: EVQLVQSGAEVKKPGESLKISCKGSGYTFTSYWMQWVRQMPGKGLEWMGEINPSNGRTDYNEKFRGQVTISADKSISTAYLQWSSLKASDTAMYYCARQGGSGYGNSYGFFDVWGQGTTVTVSS
VL: EIVLTQSPATLSLSPGERATLSCRASSSVSYMHWYQQKPGQAPRLLIYDTSRLASGIPARFSGSGSGTDFTLTISSLEPEDFAVYYCQQWRSNPYTFGGGTKVEIK
notes: His-tagged Fab from HEK293
Regarding B1, in assay [1], the binding result is “binds”.

B2: C47B148 (antibody, V domains shown)
VH: EVQLVQSGAEVKKPGESLKISCKGSGYTFTDYNMHWVRQMPGKGLEWMGDIYPYNGGTGYNQKFKGQVTISADKSISTAYLQWSSLKASDTAMYYCARGGWHAMDSWGQGTLVTVSS
VL: EIVLTQSPATLSLSPGERATLSCRSRQSIVHTNRYTYLAWYQQKPGQAPRLLIYKVSNRFSGIPARFSGSGSGTDFTLTISSLEPEDFAVYYCFQGSHVPYTFGGGTKLEIK
notes: HFA variant of C47B116; human IgG2sigma/kappa
B2 had an EC50 in assay [2] of 0.09 µg/mL.

B3: C47B152 (antibody, V domains shown)
VH: QVQLVQSGAEVKKPGSSVKVSCKASGYTFTDYNMHWVRQAPGQGLEWMGDIYPYNGGTGYNQKFKGRVTITADESTSTAYMELSSLRSEDTAVYYCARGGWHAMDSWGQGTLVTVSS
VL: B2 VL
notes: as for B2
The molecule B3 yielded an EC50 in assay [2] of 0.26 µg/mL.

B4: B6H12.2 Fab (Fab, V domains shown)
VH: EVKLVESGGDLVKPGGSLKLSCAASGFTFSGYGMSWVRQTPDKRLEWVATITSGGTYTYYPDSVKGRFTISRDNAKNTLYLQIDSLKSEDTAIYFCARSLAGNAMDYWGQGTSVTVSS
VL: DIVMTQSPATLSVTPGDRVSLSCRASQTISDYLHWYQQKSHESPRLLIKFASQSISGIPSRFSGSGSGSDFTLSINSVEPEDVGVYYCQNGHGFPRTFGGGTKLEIK
notes: Fab used for co-crystallization
For the molecule B4, in assay [1], the binding result was “binds”.

B5: C47B161 Fab (Fab, V domains shown)
VH: B3 VH with S16A, G44R, A72R, E74T, T76A
VL: DIVMTQSPLSLPVTPGEPASISCRSRQSIVHTNRYTYLAWYLQKPGQSPQLLIYKVSNRFSGVPDRFSGSGSGTDFTLKISRVEAEDVGVYYCFQGSHVPYTFGGGTKLEIK
In the case of B5, the binding result in assay [1] is recorded as “binds”.

B6: C47B229 (antibody, V domains shown)
VH: EVQLVQSGAEVKKPGESLKISCKGSGYSFDDAWIGWVRQMPGKGLEWMGIIYPGDSDTRYSPSFQGQVTISADKSISTAYLQWSSLKASDTAVYYCARVGRFASHQLDYWGQGTLVTVSS
VL: EIVLTQSPATLSLSPGERATLSCRASQSVNKALAWYQQKPGQAPRLLIYGASNRATGIPARFSGSGSGTDFTLTISSLEPEDFAVYYCQQGKGWPFTFGQGTKVEIK
notes: human IgG2sigma/kappa
With B6, the Kd in assay [3] turned out to be 2.15 nM; in assay [4], 8.32 nM. The “KD Ratio Cyno/Human” value in assay [5] was 3.9. Further, in assay [6], the “% SIRP alpha Inhibition” value amounted to 16.1%.

B7: C47B222 Fab (Fab, V domains shown)
VH: B6 VH with D30T, A32Y
VL: B6 VL with K31N, A32R, Y49H, G50W, N53T, T56I, K92A, G93S
notes: His-tagged Fab from HEK293
Turning to B7, in assay [1], the binding result is “binds”.

B8: C47B234 (antibody, V domains shown)
VH: B6 VH with D31N, A32Y
VL: B6 VL
notes: human IgG2sigma/kappa
For the molecule B8, the Kd was found to be 4.49 nM in assay [3] and 7.93 nM in assay [4]. In addition, in assay [5], the “KD Ratio Cyno/Human” value is 1.8. In addition, the “% SIRP alpha Inhibition” value in assay [6] was 86.6%.

B9: C47B230 (antibody, V domains shown)
VH: B6 VH with D30T, A32D
VL: B6 VL
notes: human IgG2sigma/kappa
As to B9, the Kd in assay [3] turned out to be 1.99 nM; in assay [4], 7.28 nM. Also, the “KD Ratio Cyno/Human” value in assay [5] was 3.7. For the same molecule, in assay [6], the “% SIRP alpha Inhibition” value amounted to 28.4%.

B10: C47B227 Fab (Fab, V domains shown)
VH: B6 VH with A32Y
VL: B6 VL with N30G, K31S, A32R, G50W, N53T, K92A, G93Y
notes: His-tagged Fab from HEK293
Take B10: the binding result in assay [1] is reported as “binds”.

B11: C47B233 (antibody, V domains shown)
VH: B6 VH with D30T, D31N, A32Y
VL: B6 VL with N30G, K31S, A32R, G50W, N53T, K92A, G93Y
notes: human IgG2sigma/kappa
As for B11, the Kd in assay [3] came to 3.9 nM; in assay [4], 3.02 nM. Moreover, in assay [5], the “KD Ratio Cyno/Human” value is 0.8. In addition, the “% SIRP alpha Inhibition” value in assay [6] turned out to be 98.4%.

B12: C47B237 (antibody, V domains shown)
VH: B6 VH with D30T, D31S, A32Y, V93M
VL: B6 VL with K31N, A32R, Y49H, G50W, N53T, T56I, K92A, G93S
notes: human IgG2sigma/kappa
In the case of B12, the Kd in assay [3] is 2.57 nM; in assay [4] it was 3.51 nM. Further, the “KD Ratio Cyno/Human” value in assay [5] was found to be 1.4. In assay [6], the “% SIRP alpha Inhibition” value came out at 97.9%.

B13: C47B240 (antibody, V domains shown)
VH: B6 VH with D30T, D31S, A32Y, V93M
VL: B6 VL with N30S, K31N, A32R, L33Q, Y49H, G50S, K92R, G93S
notes: human IgG2sigma/kappa
For the molecule B13, the Kd worked out at 8.59 nM in assay [3] and 9.23 nM in assay [4]. The “KD Ratio Cyno/Human” value in assay [5] came to 1.1. Besides, in assay [6], the “% SIRP alpha Inhibition” value worked out at 93%.

B14: C47B243 (antibody, V domains shown)
VH: B6 VH with D30T, A32Y
VL: B6 VL with N30S, K31N, A32R, K92R, G93S
notes: human IgG2sigma/kappa
For the molecule B14, the figures for the Kd in assay [3] and in assay [4] were 2.02 nM and 2.08 nM, respectively. For the same molecule, the “KD Ratio Cyno/Human” value in assay [5] is 1. In addition, the “% SIRP alpha Inhibition” value in assay [6] worked out at 99.8%.

B15: C47B238 (antibody, V domains shown)
VH: B6 VH with D30T, D31S, A32Y, V93M
VL: B6 VL with N30G, K31S, A32R, G50W, N53T, K92A, G93Y
notes: human IgG2sigma/kappa
Regarding B15, the Kd in assay [3] is 3.53 nM; in assay [4] it was 3.73 nM. For the same molecule, in assay [5], the “KD Ratio Cyno/Human” value was 1.1. Besides, the “% SIRP alpha Inhibition” value in assay [6] amounted to 99.1%.

B16: C47B235 (antibody, V domains shown)
VH: B6 VH with A32Y, G35S
VL: B6 VL
notes: human IgG2sigma/kappa
Regarding B16, the Kd came out at 2.35 nM in assay [3] and 3.06 nM in assay [4]. Moreover, the “KD Ratio Cyno/Human” value in assay [5] amounted to 1.3. For the same molecule, in assay [6], the “% SIRP alpha Inhibition” value was found to be 99.9%.

B17: C47B242 (antibody, V domains shown)
VH: B6 VH with D30T, A32S
VL: B6 VL with N30S, K31N, A32R, K92R, G93S
notes: human IgG2sigma/kappa
Take B17: the Kd in assay [3] is 3.47 nM; in assay [4] it was 3.46 nM. Also, the “KD Ratio Cyno/Human” value in assay [5] was determined as 1. In addition, the “% SIRP alpha Inhibition” value in assay [6] came to 99.1%.

B18: C47B239 (antibody, V domains shown)
VH: B6 VH with D30T, D31S, A32Y, V93M
VL: B6 VL with N30S, K31N, A32R, K92R, G93S
notes: human IgG2sigma/kappa
Turning to B18, the Kd in assay [3] was 6.69 nM; in assay [4], 9.7 nM. Also, the “KD Ratio Cyno/Human” value in assay [5] was 1.4. Besides, the “% SIRP alpha Inhibition” value in assay [6] turned out to be 96.7%.

B19: C47B244 (antibody, V domains shown)
VH: B6 VH with A32Y
VL: B6 VL with N30S, K31N, A32R, K92R, G93S
notes: human IgG2sigma/kappa
Take B19: the Kd in assay [3] was 2.12 nM; in assay [4] it was 1.55 nM. Besides, the “KD Ratio Cyno/Human” value in assay [5] came out at 0.7. In addition, the “% SIRP alpha Inhibition” value in assay [6] worked out at 99.8%.

B20: C47B236 (antibody, V domains shown)
VH: B6 VH with D30K, A32D
VL: B6 VL
notes: human IgG2sigma/kappa
Regarding B20, the Kd turned out to be 2.92 nM in assay [3] and 14.6 nM in assay [4]. Besides, the “KD Ratio Cyno/Human” value in assay [5] was 5. In addition, in assay [6], the “% SIRP alpha Inhibition” value was 9.8%.

B21: C47B241 (antibody, V domains shown)
VH: B6 VH with A32S
VL: B6 VL with N30S, K31N, A32R, K92R, G93S
notes: human IgG2sigma/kappa
As to B21, the Kd in assay [3] is 2.62 nM; in assay [4], 2.03 nM. Also, in assay [5], the “KD Ratio Cyno/Human” value came to 0.8. The “% SIRP alpha Inhibition” value in assay [6] turned out to be 99.8%.

B22: C47B232 (antibody, V domains shown)
VH: B6 VH with D30T, D31N, A32Y
VL: B6 VL with K31N, A32R, Y49H, G50W, N53T, T56I, K92A, G93S
notes: human IgG2sigma/kappa
Take B22: the Kd came out at 2.8 nM in assay [3] and 2.42 nM in assay [4]. Also, the “KD Ratio Cyno/Human” value in assay [5] amounted to 0.9. Moreover, the “% SIRP alpha Inhibition” value in assay [6] was 99.6%.

B23: C47B231 (antibody, V domains shown)
VH: B6 VH with D30T, D31N, A32Y
VL: B6 VL
notes: human IgG2sigma/kappa
B23: the values for the Kd in assay [3] and in assay [4] were 11.3 nM and 12.3 nM, respectively. Further, in assay [5], the “KD Ratio Cyno/Human” value stood at 1.1. The “% SIRP alpha Inhibition” value in assay [6] worked out at 83.7%.

The values above are taken from patent US20180250395A1 (Janssen / Centocor, published 2018).
